Experimental data from article PMC8518180, “A global screening identifies chromatin-enriched RNA-binding proteins and the transcriptional regulatory activity of QKI5 during monocytic differentiation”.

T1: QKI5 (UniProt Q96PU8 1-341)
T1 sequence: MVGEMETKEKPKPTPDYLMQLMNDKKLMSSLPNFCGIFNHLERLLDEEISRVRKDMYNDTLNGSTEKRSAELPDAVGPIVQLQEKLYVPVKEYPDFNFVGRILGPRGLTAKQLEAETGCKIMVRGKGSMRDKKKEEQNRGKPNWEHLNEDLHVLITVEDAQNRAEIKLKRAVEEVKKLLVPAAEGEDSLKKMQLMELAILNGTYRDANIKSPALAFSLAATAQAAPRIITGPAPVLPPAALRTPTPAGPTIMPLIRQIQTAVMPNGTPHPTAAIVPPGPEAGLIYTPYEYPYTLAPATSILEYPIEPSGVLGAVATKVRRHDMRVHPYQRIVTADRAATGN


Target: T1, QKI5
Assay: EMSA; 50 fmol biotin-labelled probe; LightShift Chemiluminescent EMSA Kit per manufacturer; 50 fmol biotin-labelled probe, 4 ul QKI5; room temperature 20 min; native 8% PAGE; buffer, salt and pH not stated
Conditions: protein: commercial; chain copies: 2; label: 5'-biotin (cold version unlabelled); blunt

Binder | binding result
mutant CXCL2 promoter probe (dsDNA) DNA 1: GAAAGGATGGAAAGCCATAACACTGTTAAC DNA 2: GTTAACAGTGTTATGGCTTTCCATCCTTTC | no binding
wild-type CXCL2 promoter probe (dsDNA) DNA 1: GAAAGGATGGGGGATTGCAACACTGTTAAC DNA 2: GTTAACAGTGTTGCAATCCCCCATCCTTTC | binds
